Experimental data as given in patent publication US20180162928A1 (Janssen / Centocor, published 2018).

How the values were obtained:
Assay in all cases: ELISA, lysate on plate-bound antigen
[1] = molecular target: unrelated Fc-fused recombinant protein
[2] = molecular target: human serum albumin (human) (UniProt P02768)
[3] = molecular target: T1, recombinant biotinylated PD-L1 (rhPD-L1/Fc Chimera, R&D Systems 156-B7) (human, UniProt Q9NZQ7 19-238, biotinylated (sites not given))
T1 construct: Bought Fc chimera; also called human PD-L1
T1 sequence (Q9NZQ7 19-238, change not shown): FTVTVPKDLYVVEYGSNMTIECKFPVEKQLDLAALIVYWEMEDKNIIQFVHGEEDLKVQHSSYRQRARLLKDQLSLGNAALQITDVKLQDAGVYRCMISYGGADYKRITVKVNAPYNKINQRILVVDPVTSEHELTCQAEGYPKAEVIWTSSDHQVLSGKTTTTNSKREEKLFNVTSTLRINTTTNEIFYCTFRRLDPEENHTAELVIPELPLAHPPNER
Procedure: Streptavidin-coated Maxisorp plates (Nunc catalog 436110) were blocked for 1 h in Starting Block T20 (Pierce) and then coated with biotinylated PD-L1 (using same antigen as in panning) or negative controls (an unrelated Fc-fused recombinant protein and human serum albumin) for 1 h. Plates were rinsed with TBST and diluted lysate was applied to plates for 1 h. Following additional rinses, wells were treated with HRP-conjugated anti-FN3 domain antibody (PAB25) for 1 h and then assayed with POD (Roche catalog 11582950001).

Chain of human serum albumin (human) (P02768 25-609 limits assumed): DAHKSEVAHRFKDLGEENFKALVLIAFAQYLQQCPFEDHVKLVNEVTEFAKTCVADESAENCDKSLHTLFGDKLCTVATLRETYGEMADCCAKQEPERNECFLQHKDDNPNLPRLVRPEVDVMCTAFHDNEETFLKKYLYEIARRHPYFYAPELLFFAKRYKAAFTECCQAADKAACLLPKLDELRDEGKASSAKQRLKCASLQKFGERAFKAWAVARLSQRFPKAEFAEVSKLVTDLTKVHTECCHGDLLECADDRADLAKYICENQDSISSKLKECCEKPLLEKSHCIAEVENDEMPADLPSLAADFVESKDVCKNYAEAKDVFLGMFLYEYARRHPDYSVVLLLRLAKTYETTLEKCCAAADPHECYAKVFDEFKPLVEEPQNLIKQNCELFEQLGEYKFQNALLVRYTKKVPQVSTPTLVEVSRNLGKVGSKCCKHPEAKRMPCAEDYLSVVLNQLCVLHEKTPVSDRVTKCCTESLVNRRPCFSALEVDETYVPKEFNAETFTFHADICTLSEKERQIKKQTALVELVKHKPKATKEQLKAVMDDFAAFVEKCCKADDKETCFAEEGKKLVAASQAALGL

Binder | ELISA Fc Control (RSU) [1] | ELISA HSA (RSU) [2] | ELISA PD-L1 Fc (RSU) [3]
ISOP121AR5P1B8 (designed binder, not shown: small tags and cut ends, FN3 domain; E. coli lysate in the ELISA) LPAPKNLVISRVTEDSARLSWDKRTQFAFDSFLIQYQESEKVGEAIVLTVPGSERSYDLTGLKPGTEYTVSIYGVPTWSGRTQSNPLSAIFTT | 640 RSU | 560 RSU | 592000 RSU
ISOP121GR5P1F7 (designed binder, not shown: small tags and cut ends, FN3 domain; E. coli lysate in the ELISA) LPAPKNLVVSRVTEDSARLSWTAPDAAFDSFGINYVERASEGEAIDLGVPGSERSYDLTGLKPGTEYFVKIFGVKGGIPSVPLWAWFTT | 640 RSU | 720 RSU | 697000 RSU
ISOP121AR5P1A10 (designed binder, not shown: small tags and cut ends, FN3 domain; E. coli lysate in the ELISA) LPAPKNLVVSRVTEDSARLSWPDWSNSEYFDSFLIQYQESEKVGEAIVLTVPGSERSYDLTGLKPGTEYTVSIYGVYARHRLFVSNPLSAIFTT | 1120 RSU | 560 RSU | 789000 RSU
ISOP194AR9P1G7 (designed binder, not shown: small tags and cut ends, FN3 domain; E. coli lysate in the ELISA) LPAPKNLVVSRVTEDSARLSWGDDFNSEYFDSFLIQYQESEKVGEAIVLTVPGSERSYDLTGLKPGTEYTVSIYGVYTRAVVFTSNPLSAIFTT | 1280 RSU | 560 RSU | 1.59e+07 RSU
ISOP121BR5P1B5 (designed binder, not shown: small tags and cut ends, FN3 domain; E. coli lysate in the ELISA) LPAPKNLVVSRVTEDSARLSWRKQEQYFDSFLIQYQESEKVGEAIVLTVPGSERSYDLTGLKPGTEYTVSIYGVYQRGYHNWFSNPLSAIFTT | 720 RSU | 400 RSU | 1.48e+06 RSU
ISOP121BR5P1A2 (designed binder, not shown: small tags and cut ends, FN3 domain; E. coli lysate in the ELISA) LPAPKNLVVSRVTEDSARLSWRFSQEWFDSFLIQYQESEKVGEAIVLTVPGSERSYDLTGLKPGTEYTVSIYGVYARGIHKWLSNPLSAIFTT | 720 RSU | 800 RSU | 743000 RSU
ISOP121BR5P1E7 (designed binder, not shown: small tags and cut ends, FN3 domain; E. coli lysate in the ELISA) LPAPKNLVVSRVTEDSARLSWRKQEQYFDSFLIQYQESEKVGEAIVLTVPGSERSYDLTGLKPGTEYTVSIYGVKKWPSTTTTSNPLSAIFTT | 800 RSU | 640 RSU | 412000 RSU
ISOP121BR5P1C6 (designed binder, not shown: small tags and cut ends, FN3 domain; E. coli lysate in the ELISA) LPAPKNLVVSRVTEDSARLSWRKQEQYFDSFLIQYQESEKVGEAIVLTVPGSERSYDLTGLKPGTEYTVSIYGVYSRPKAEFTSNPLSAIFTT | 720 RSU | 720 RSU | 13400 RSU
ISOP121BR5P1C5 (designed binder, not shown: small tags and cut ends, FN3 domain; E. coli lysate in the ELISA) LPAPKNLVVSRVTEDSARLSWFRLRIVQTFDSFLIQYQESEKVGEAIVLTVPGSERSYDLTGLKPGTEYTVSIYGVITVVELLQQSNPLSAIFTT | 400 RSU | 720 RSU | 11700 RSU
ISOP121GR5P1D7 (designed binder, not shown: small tags and cut ends, FN3 domain; E. coli lysate in the ELISA) LPAPKNLVVSRVTEDSARLSWTAPDAAFDSFKIWYQERSIVGEAIFLLVPGSERSYDLTGLKPGTEYIVQIFGVKGGPYSNPLWAPFTT | 720 RSU | 720 RSU | 792000 RSU
ISOP121AR5P1A8 (designed binder, not shown: small tags and cut ends, FN3 domain; E. coli lysate in the ELISA) LPAPKNLVVSRVTEDSARLSWGLEWAYQFFDSFLIQYQESEKVGEAIVLTVPGSERSYDLTGLKPGTEYTVSIYGVYLRAIEFYSNPLSAIFTT | 560 RSU | 1040 RSU | 516000 RSU
ISOP121BR5P1G3 (designed binder, not shown: small tags and cut ends, FN3 domain; E. coli lysate in the ELISA) LPAPKNLVVSRVTEDSARLSWKQRTSFHFDSFLIQYQESEKVGEAIVLTVPGSERSYDLTGLKPGTEYTVSIYGVPFWQQWQPESNPLSAIFTT | 560 RSU | 640 RSU | 771000 RSU
ISOP121FR5P1H8 (designed binder, not shown: small tags and cut ends, FN3 domain; E. coli lysate in the ELISA) LPAPKNLVVSRVTEDSARLSWTAPDAAFDSFVIYYSEQHFYGEAIVLTVPGSERSYDLTGLKPGTEYVVKIYGVKGGETSKPLSAIFTT | 560 RSU | 640 RSU | 431000 RSU
ISOP121GR5P1D2 (designed binder, not shown: small tags and cut ends, FN3 domain; E. coli lysate in the ELISA) LPAPKNLVVSRVTEDSARLSWTAPDAAFDSFHILYQERAQSGEAIGLVVPGSERSYDLTGLKPATEYSVQIFGVKGGKLSNPLWAWFTT | 720 RSU | 640 RSU | 513000 RSU
ISOP121AR5P1H1 (designed binder, not shown: small tags and cut ends, FN3 domain; E. coli lysate in the ELISA) LPAPKNLVVSRVTEDSARLSWKQATKFVFDSFLIQYQESEKVGEAIVLTVPGSERSYDLTGLKPGTEYTVSIYGVPDWFVLESNPLSAIFTT | 880 RSU | 880 RSU | 1.48e+06 RSU
